One block for each binder: values may come before it.
How the values were obtained:
[1] = target: T1, extracellular domain of activin receptor type IIB (ActRIIBecd), biotinylated (Homo sapiens (Human), UniProt Q13705 27-117, amino-biotinylated with amine-PEG3-Biotin); assay: BIAcore SPR, biotinylated ActRIIBecd on chip; SD ±12.79 nM
T1 construct: immobilised on a streptavidin-coated sensor chip; also called biotinylated ActRIIBecd; extracellular domain of ActRIIB
T1 sequence: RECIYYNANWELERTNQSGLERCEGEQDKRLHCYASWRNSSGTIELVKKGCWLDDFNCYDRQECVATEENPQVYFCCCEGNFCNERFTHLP
Method: (§1) Biosensor experiments. In one embodiment, experiments were performed on a BIAcore™ T100/T200 instrument (Pharmacia Biosensor AB) in the multichannel mode (serial flow path involving flow cells 1+2+3+4). Flow rate was 10 μl/min; temperature was 25° C.; and data were recorded at 2.5 points/s. All four segments of a sensor chip CMS were coated with streptavidin (Sigma) to a density of 2000 pg/mm² (2000 resonance units) by the aminocoupling procedure. ActRIIBecd (10 mg) and amine-PEG3-Biotin (10 mg, Pierce, Rockford, Ill.) were dissolved in 200 μl H₂O and 10 mg NaCNBH₃ was added to prepare biotinylated ActRIIBecd. The reaction mixture was heated at 70° C. for 24 h, after that a further 10 mg NaCNBH₃ was added and the reaction was heated at 70° C. for another 24 h. After cooling to room temperature, the mixture was desalted with the spin column (3,000 molecular weight cut off (MWCO)). […] Sensograms were recorded during flow of the analyte (the ActRIIBecd-associated polypeptides (i.e., domains) as previously described) first through flow cell 1 (control) then through flow cell 2 (biotinylated ActRIIBecd). […] The sensograms obtained at 1.11, 3.33, 10, 30, and 90 nM analyte were evaluated for equilibrium binding, association rate, and dissociation rate by using the programs supplied with the instrument (BIA evaluation 2.1; Software Handbook. 1995; Pharmacia Biosensor AB).

[2] = target: T1, extracellular domain of activin …; assay: BIAcore SPR as Example 5 (method not restated); SD ±2.14 nM
Method: as §1

[3] = target: T1, extracellular domain of activin …; assay: Mean KD column of Table 5; method not restated (BIAcore as Example 5); species also listed in Table 4
Summary of the method: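 Equilibrium binding plus on- and off-rates came from reference-subtracted sensograms of five analyte concentrations (1.11, 3.33, 10, 30, 90 nM). The receptor domain, amine-linked to biotin, sat on a streptavidin chip at a density of 50-250 RU. Flow was 10 μl/min at 25° C.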

[4] = target: T1, extracellular domain of activin …; assay: BIAcore SPR as Example 5 (method not restated); SD ±3.01 nM
Method: as §1

[5] = target: T1, extracellular domain of activin …; assay: BIAcore SPR as Example 5 (method not restated); SD ±1.13 nM
Method: as §1

[6] = target: T1, extracellular domain of activin …; assay: BIAcore SPR as Example 5 (method not restated); SD ±1.76 nM
Method: as §1

[7] = target: T1, extracellular domain of activin …; assay: BIAcore SPR as Example 5 (method not restated); SD ±1.32 nM
Method: as §1

[8] = target: T1, extracellular domain of activin …; assay: BIAcore SPR as Example 5 (method not restated); SD ±2.08 nM
Method: as §1

[9] = target: T1, extracellular domain of activin …; assay: BIAcore SPR as Example 5 (method not restated); SD ±2.71 nM
Method: as §1

[10] = target: T1, extracellular domain of activin …; assay: BIAcore SPR as Example 5 (method not restated); SD ±0.75 nM
Method: as §1

[11] = target: T1, extracellular domain of activin …; assay: BIAcore SPR as Example 5 (method not restated); SD ±2.39 nM
Method: as §1

[12] = target: T1, extracellular domain of activin …; assay: BIAcore SPR as Example 5 (method not restated); SD ±2.05 nM
Method: as §1

[13] = target: T1, extracellular domain of activin …; assay: BIAcore SPR as Example 5 (method not restated); SD ±1.65 nM
Method: as §1

[14] = target: T1, extracellular domain of activin …; assay: BIAcore SPR as Example 5 (method not restated); SD ±1.12 nM
Method: as §1

[15] = target: T1, extracellular domain of activin …; assay: BIAcore SPR as Example 5 (method not restated); SD ±1.03 nM
Method: as §1

[16] = target: T1, extracellular domain of activin …; assay: BIAcore SPR as Example 5 (method not restated); SD ±0.96 nM
Method: as §1

[17] = target: T1, extracellular domain of activin …; assay: BIAcore SPR as Example 5 (method not restated); SD ±1.60 nM
Method: as §1

[18] = target: T1, extracellular domain of activin …; assay: BIAcore SPR as Example 5 (method not restated); SD ±1.05 nM
Method: as §1

[19] = target: T1, extracellular domain of activin …; assay: BIAcore SPR as Example 5 (method not restated); SD ±2.35 nM
Method: as §1

[20] = target: T1, extracellular domain of activin …; assay: BIAcore SPR as Example 5 (method not restated); SD ±1.38 nM
Method: as §1

Binder: VDFKDVGWNDHAVAPPGYHAFYCHGECPFPLADHLNSDNHAIVQTKVNSV [Clone No. 14 domain (ActRIIBecd-associated polypeptide)]
Kd [1]: 38.3 nM

B1: SEQ ID NO: 248, cysteine pairs C67-C71^a, C8-C43^a, C9-C41^a (designed binder)
chain: NSKDPKACCVPTELSAPSPLYLDENEKPVLKNYQDMVVHGCGCRVDFKDVGWNDHAVAPPGYHAFYCHGECPFPLADHLNSDNHAIVQTKVNSV
modifications: disulfides C67-C71 (intra), C8-C43 (intra), C9-C41 (intra)
Kd [2]: 20 nM | Kd [3]: 20 nM

B2: SEQ ID NO: 248, cysteine pairs C67-C71^a, C8-C43^b, C9-C41^b (designed binder)
chain: B1 chain
modifications: disulfides C67-C71 (intra), C8-C43 (inter), C9-C41 (inter)
notes: homodimer by intermolecular disulfide
Kd [4]: 19.2 nM | Kd [3]: 19.2 nM

B5: SEQ ID NO: 268, cysteine pairs C23-C27^a, C65-C65^b, C79-C112^a, C80-C114^a (designed binder)
chain: VDFSDVGWNDWIVAPPGYHAFYCHGECPFPLADHLNSTNHAIVQTLVNSVAQAKHKQRKRLKSSCKRHPLYNSKIPKACCVPTELSAISMLYLDENEKVVLKNYQDMVVEGCGCR
modifications: disulfides C23-C27 (intra), C65-C65 (inter), C79-C112 (intra), C80-C114 (intra)
notes: as for B2
Kd [7]: 7.21 nM | Kd [3]: 7.21 nM

B6: SEQ ID NO: 268, cysteine pairs C23-C27^a, C65-C65^b, C79-C114^a, C80-C112^a (designed binder)
chain: B5 chain
modifications: disulfides C23-C27 (intra), C65-C65 (inter), C79-C114 (intra), C80-C112 (intra)
notes: as for B2
Kd [8]: 8.74 nM | Kd [3]: 8.74 nM

B8: SEQ ID NO: 268, cysteine pairs C23-C27^a, C65-C65^b, C79-C112^b, C80-C114^b (designed binder)
chain: B5 chain
modifications: disulfides C23-C27 (intra), C65-C65 (inter), C79-C112 (inter), C80-C114 (inter)
notes: as for B2
Kd [10]: 7.96 nM | Kd [3]: 7.96 nM

B9: SEQ ID NO: 254, cysteine pairs C23-C27^a, C58-C93^a, C59-C91^a (designed binder)
chain: VDFKDVGWNDHAVAPPGYHAFYCHGECPFPLADHLNSDNHAIVQTKVNSVNSKDPKACCVPTELSAPSPLYLDENEKPVLKNYQDMVVHGCGCR
modifications: disulfides C23-C27 (intra), C58-C93 (intra), C59-C91 (intra)
Kd [11]: 19.1 nM | Kd [3]: 19.1 nM

B10: SEQ ID NO: 254, cysteine pairs C23-C58^a (designed binder)
chain: B9 chain
modifications: disulfides C23-C58 (intra)
Kd [12]: 44.4 nM | Kd [3]: 44.4 nM

B11: SEQ ID NO: 254, cysteine pairs C23-C27^a, C58-C91^b, C59-C93^b (designed binder)
chain: B9 chain
modifications: disulfides C23-C27 (intra), C58-C91 (inter), C59-C93 (inter)
notes: as for B2
Kd [13]: 18.7 nM | Kd [3]: 18.7 nM

B12: SEQ ID NO: 260, cysteine pairs C15-C80^a, C44-C112^a, C48-C114^a, C79-C79^b (designed binder)
chain: AQAKHKQRKRLKSSCKRHPLYVDFSDVGWNDWIVAPPGYHAFYCHGECPFPLADHLNSTNHAIVQTLVNSVNSKIPKACCVPTELSAISMLYLDENEKVVLKNYQDMVVEGCGCR
modifications: disulfides C15-C80 (intra), C44-C112 (intra), C48-C114 (intra), C79-C79 (inter)
notes: as for B2
Kd [14]: 6.56 nM | Kd [3]: 6.56 nM

B13: SEQ ID NO: 260, cysteine pairs C15-C15^b, C79-C114^a, C80-C112^a, C44-C48^a (designed binder)
chain: B12 chain
modifications: disulfides C15-C15 (inter), C79-C114 (intra), C80-C112 (intra), C44-C48 (intra)
notes: as for B2
Kd [15]: 7.64 nM | Kd [3]: 7.64 nM

B14: SEQ ID NO: 260, cysteine pairs C80-C114^b, C79-C112^b, C44-C48^a (designed binder)
chain: B12 chain
modifications: disulfides C80-C114 (inter), C79-C112 (inter), C44-C48 (intra)
notes: as for B2
Kd [16]: 6.89 nM | Kd [3]: 6.89 nM

Results, then the binder that gave them:

Kd [5]: 4.89 nM | Kd [3]: 4.89 nM
B3: SEQ ID NO: 284, cysteine pairs C59-C59^b, C8-C41^a, C9-C43^a, C88-C92^a (designed binder)
chain: NSKIPKACCVPTELSAISMLYLDENEKVVLKNYQDMVVEGCGCRAQAKHKQRKRLKSSCKRHPLYVDFSDVGWNDWIVAPPGYHAFYCHGECPFPLADHLNSTNHAIVQTLVNSV
modifications: disulfides C59-C59 (inter), C8-C41 (intra), C9-C43 (intra), C88-C92 (intra)
notes: as for B2

Kd [6]: 5.79 nM | Kd [3]: 5.79 nM
B4: SEQ ID NO: 284, cysteine pairs C59-C59^b, C8-C41^b, C9-C43^b, C88-C92^a (designed binder)
chain: B3 chain
modifications: disulfides C59-C59 (inter), C8-C41 (inter), C9-C43 (inter), C88-C92 (intra)
notes: as for B2

Kd [9]: 29.6 nM | Kd [3]: 29.6 nM
B7: SEQ ID NO: 268, cysteine pairs C23-C79^a (designed binder)
chain: B5 chain
modifications: disulfides C23-C79 (intra)

Kd [17]: 5.71 nM | Kd [3]: 5.71 nM
B15: SEQ ID NO: 276, cysteine pairs C67-C71^a, C8-C41^a, C9-C43^a, C109-C109^b (designed binder)
chain: NSKIPKACCVPTELSAISMLYLDENEKVVLKNYQDMVVEGCGCRVDFSDVGWNDWIVAPPGYHAFYCHGECPFPLADHLNSTNHAIVQTLVNSVAQAKHKQRKRLKSSCKRHPLY
modifications: disulfides C67-C71 (intra), C8-C41 (intra), C9-C43 (intra), C109-C109 (inter)
notes: as for B2

Kd [18]: 7.66 nM | Kd [3]: 7.66 nM
B16: SEQ ID NO: 276, cysteine pairs C67-C71^a, C8-C43^a, C9-C41^a, C109-C109^b (designed binder)
chain: B15 chain
modifications: disulfides C67-C71 (intra), C8-C43 (intra), C9-C41 (intra), C109-C109 (inter)
notes: as for B2

Kd [19]: 27.9 nM | Kd [3]: 27.9 nM
B17: SEQ ID NO: 276, cysteine pairs C8-C9^a (designed binder)
chain: B15 chain
modifications: disulfides C8-C9 (intra)

Kd [20]: 6.31 nM | Kd [3]: 6.31 nM
B18: SEQ ID NO: 276, cysteine pairs C67-C71^a, C8-C43^b, C9-C41^b, C109-C109^b (designed binder)
chain: B15 chain
modifications: disulfides C67-C71 (intra), C8-C43 (inter), C9-C41 (inter), C109-C109 (inter)
notes: as for B2

— US20190071480A1 (Biogen, published 2019)
